Experimental data published in publication doi:10.1101/2024.04.26.591305 (2024).

B1: U20 (msfGFPΔC10-Utr28-222) (domain or fragment)
chain: EHNDVQKKTFTKWINARFSKSGKPPINDMFTDLKDGRKLLDLLEGLTGTSLPKERGSTRVHALNNVNRVLQVLHQNNVELVNIGGTDIVDGNHKLTLGLLWSIILHWQVKDVMKDVMSDLQQTNSEKILLSWVRQTTRPYSQVNVLNFTTSWTDGLAFNAVLHRHKPDLFSWDKVVKMSPIERLEHAFSKAQTYL

biological target: α-skeletal muscle actin filaments (rabbit) (rabbit, UniProt P68135 1-377)

| Kd [µM] | Binder |
| --- | --- |
| 13.2 | B1 |
| 11.3 | MGVADLIKKFESI (domain or fragment) [L22 (LifeactΔC4-msfGFPΔN7)] |
| 4.5 | VADLIKKFESISKEE (domain or fragment) [L45 (msfGFPΔC9-LifeactΔN2)] |
